Experimental data published in paper PMC10632424, “Low-noise fluorescent detection of cardiac troponin I in human serum based on surface acoustic wave separation”.

Assays:
[1] = molecular target: cardiac troponin I (cTnI) (human, UniProt P19429 2-210); test: fluorescence recovery by displacement of AuNP-ssDNA (bead-immobilized probe); PBS, cTnI 0.2-60 ng/mL; LOD 44 pg/mL; PBS pH 7.2, 30 min shaking, temperature not stated; probe folded in 1 mM MgCl2, 1x PBS pH 7.2; serum diluted 10x in PBS; conditions: protein: commercial; label: Texas Red; gold nanoparticle quencher; biotin on streptavidin PS beads; S2 pairs with S1[6-23]; S1 overhangs 5' 5 nt and 3' 17 nt
cardiac troponin I (cTnI), sequence (P19429 2-210): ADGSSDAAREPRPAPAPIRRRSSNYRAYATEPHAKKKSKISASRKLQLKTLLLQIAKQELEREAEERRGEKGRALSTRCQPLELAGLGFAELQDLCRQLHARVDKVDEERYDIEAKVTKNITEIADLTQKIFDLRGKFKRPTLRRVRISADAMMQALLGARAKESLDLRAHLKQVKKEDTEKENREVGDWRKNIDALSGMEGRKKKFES

[2] = molecular target: T1, C-reactive protein (CRP) (UniProt P02741 19-224); test: fluorescence recovery by displacement of AuNP-ssDNA (bead-immobilized probe); 20 ng/mL; negligible response; PBS pH 7.2, 30 min shaking, temperature not stated; probe folded in 1 mM MgCl2, 1x PBS pH 7.2; serum diluted 10x in PBS; conditions: protein: commercial; chain copies: 5; label: Texas Red; gold nanoparticle quencher; biotin on streptavidin PS beads; S2 pairs with S1[6-23]; S1 overhangs 5' 5 nt and 3' 17 nt
T1 sequence: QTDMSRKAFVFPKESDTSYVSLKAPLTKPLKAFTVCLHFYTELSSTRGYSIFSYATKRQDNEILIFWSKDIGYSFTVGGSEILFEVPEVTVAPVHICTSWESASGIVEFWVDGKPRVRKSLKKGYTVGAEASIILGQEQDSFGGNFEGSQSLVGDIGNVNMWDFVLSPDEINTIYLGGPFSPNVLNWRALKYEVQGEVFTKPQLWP

[3] = molecular target: T2, myoglobin (MYO) (UniProt P02144 2-154); test: as above; conditions: protein: commercial; label: Texas Red; gold nanoparticle quencher; biotin on streptavidin PS beads; S2 pairs with S1[6-23]; S1 overhangs 5' 5 nt and 3' 17 nt
T2 sequence: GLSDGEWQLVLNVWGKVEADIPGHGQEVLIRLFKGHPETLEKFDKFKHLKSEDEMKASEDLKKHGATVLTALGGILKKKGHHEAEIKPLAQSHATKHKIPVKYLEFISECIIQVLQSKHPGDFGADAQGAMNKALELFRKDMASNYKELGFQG

B1: cTnI aptamer probe hybridized with AuNP-ssDNA (mixed)
DNA 1: CGTGCAGTACGCCAACCTTTCTCATGCGCTGCCCCTCTTA
DNA 2: GAGAAAGGTTGGCGTACT
modifications: 5'-biotin and 3'-Texas Red on S1; 5' SH-C6 on S2 (gold nanoparticle)
binding result [1]: binds | binding result [2]: no binding | binding result [3]: no binding
